# B1: Wnt inhibitory factor 1 (Homo sapiens), Q9Y5W5 (parent)
# chain: MARRSAFPAAALWLWSILLCLLALRAEAGPPQEESLYLWIDAHQARVLIGFEEDILIVSEGKMAPFTHDFRKAQQRMPAIPVNIHSMNFTWQAAGQAEYFYEFLSLRSLDKGIMADPTVNVPLLGTVPHKASVVQVGFPCLGKQDGVAAFEVDVIVMNSEGNTILQTPQNAIFFKTCQQAECPGGCRNGGFCNERRICECPDGFHGPHCEKALCTPRCMNGGLCVTPGFCICPPGFYGVNCDKANCSTTCFNGGTCFYPGKCICPPGLEGEQCEISKCPQPCRNGGKCIGKSKCKCSKGYQGDLCSKPVCEPGCGAHGTCHEPNKCQCQEGWHGRHCNKRYEASLIHALRPAGAQLRQHTPSLKKAEERRDPPESNYIW
# partner: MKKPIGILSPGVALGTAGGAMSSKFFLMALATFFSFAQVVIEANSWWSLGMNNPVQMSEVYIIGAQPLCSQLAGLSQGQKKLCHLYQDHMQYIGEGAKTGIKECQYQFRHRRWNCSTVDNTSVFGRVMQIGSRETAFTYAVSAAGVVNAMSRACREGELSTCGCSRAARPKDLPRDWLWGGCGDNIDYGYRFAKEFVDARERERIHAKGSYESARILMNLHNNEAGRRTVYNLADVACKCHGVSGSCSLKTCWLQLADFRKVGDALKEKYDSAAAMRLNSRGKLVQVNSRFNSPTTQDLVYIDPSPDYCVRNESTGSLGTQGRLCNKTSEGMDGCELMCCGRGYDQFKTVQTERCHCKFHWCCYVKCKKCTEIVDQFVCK
# B2: Wnt inhibitory factor 1 (Homo sapiens), Q9Y5W5 (parent)
# chain: B1 chain
# Variants of: B1
# Settings: with wnt5a_mouse Wnt5a
row,effect of a mutation on the interaction,Variant
1,increasing interaction,W15R

# Variants of: B2
# Settings: with wnt3a_mouse Wnt3a
row,effect of a mutation on the interaction,Variant
1,decreasing interaction,W15R
